From the RNAGym collection of RNA variant scans (doi:10.7554/elife.80360)

B1: CPEB3 Ribozyme (parent)
chain: GGGGGCCACAGCAGAAGCGUUCACGUCGCGGCCCCUGUCAGAUUCUGGUGAAUCUGCGAAUUCUGCUGU

Variants of: B1
Test: self-cleavage, relative activity (ratio to wild type); higher = more cleavage; co-transcriptional

Point of comparison: A40U U67G, self-cleavage 0.886. Against it:
- A42C U46G — higher, 0.929
- A40U U64G — lower, 0.598
- A40U U64A — lower, 0.435
- G41A A42C — lower, 0.588
- G41A A42G — lower, 0.855
- A42G C45U — higher, 0.927
- A42G C45A — higher, 1.01
- A40U U49G — lower, 0.816
- A40U U49C — lower, 0.757
- A40U U49A — higher, 0.922
- G41C U49C — lower, 0.871
- G41C U49A — higher, 0.988
- A42C G58C — higher, 1.04
- A42C A51G — lower, 0.852
- G41U U55G — lower, 0.324
- A42C A52G — higher, 0.919
- A42C A52U — higher, 0.96
- A42C A52C — lower, 0.803
- A42G U61G — lower, 0.359
- A42G C66U — higher, 0.93
- A42G C66G — lower, 0.622
- A42G C66A — lower, 0.558
- G41A C66G — lower, 0.429
- G41U G68U — higher, 0.972
- G41U G68A — higher, 0.931
- G41U G68C — higher, 0.93
- A42G U67G — higher, 0.897
- A42G U67A — lower, 0.86
- A42G U67C — higher, 0.957
- G41A C57U — lower, 0.368
- G41A C57G — lower, 0.299
- G41A C57A — lower, 0.283
- A40U C66U — lower, 0.729
- A40U C66A — lower, 0.397
- A40U C66G — lower, 0.325
- A40U U46A — higher, 0.919
- A40U U46G — lower, 0.878
- A40U U46C — lower, 0.716
- A42U A51C — lower, 0.839
- A42U A51U — higher, 0.914
- G41A G65C — lower, 0.261
- G41A G65U — lower, 0.379
- G41C A59C — lower, 0.225
- G41C A59G — lower, 0.845
- A40U C63G — lower, 0.392
- A40U C63U — lower, 0.77
- G41U U43C — lower, 0.357
- G41U U43A — lower, 0.3
- G41U U43G — lower, 0.267
- A42G G48U — higher, 0.948
- A42G G48C — higher, 0.989
- A42G A51U — lower, 0.799
- A42G A51C — lower, 0.672
- G41U C54U — higher, 0.94
- G41U C54G — higher, 0.95
- G41U C54A — higher, 0.972
- A40G U69G — higher, 1.02
- A40G U69C — lower, 0.718
- A40G U69A — higher, 1.01
- G41C U53A — lower, 0.463
- G41C U53C — lower, 0.283
- G41A G47C — higher, 0.913
- A40G U64A — lower, 0.759
- G41C C66G — lower, 0.369
- G41C U43A — lower, 0.31
- G41C U43C — lower, 0.486
- G41C U43G — lower, 0.25
- G41A C45U — lower, 0.677
- A42G U69G — higher, 1.03
- A42G U69C — higher, 1.04
- G41C U46A — higher, 0.921
- G41C A51U — lower, 0.542
- G41C A51C — lower, 0.43
- A42C U69A — higher, 1.02
- A42C U69G — higher, 1.01
- A42C U69C — higher, 1.05
- A42G G47U — higher, 0.988
- A42G G47A — higher, 0.955
- G41U U49C — lower, 0.849
- G41A U55A — lower, 0.596
- G41A U55G — lower, 0.379
- G41U G50C — lower, 0.54
- A42G U46G — higher, 0.941
- A42G U46A — higher, 0.935
- A42G C63A — lower, 0.617
- A42G C63U — higher, 0.889
- A42G C63G — lower, 0.583
- G41A U44G — lower, 0.307
- G41U G48C — higher, 0.952
- G41U G48U — higher, 0.99
- A42G C57U — lower, 0.356
- G41U G65A — lower, 0.438
- G41U G65U — lower, 0.366
- A42U A59G — higher, 0.965
- G41U U53G — lower, 0.604
- G41U U53C — lower, 0.364
- G41A A52G — lower, 0.716
- G41A A52U — lower, 0.683
- A42C U49G — higher, 0.964
- A42C U49A — higher, 0.974
- G41C G58A — lower, 0.772
- A42G U62C — lower, 0.647
- A40U G47C — lower, 0.88
- A40G U67C — higher, 0.901
- A40G U67G — higher, 0.965
- G41A U43C — lower, 0.416
- G41A U43A — lower, 0.335
- G41C U69G — higher, 0.959
- G41C U69C — higher, 1.01
- G41U U64C — lower, 0.382
- G41U U64G — lower, 0.441
- G41U U64A — lower, 0.501
- A42G G65C — lower, 0.508
- A42G G65U — lower, 0.605
- A42G G65A — lower, 0.639
- A42G — higher, 0.951
- A42U — higher, 0.965
- A42C — higher, 0.961
- A42C C54G — lower, 0.73
- A40U G65C — lower, 0.304
- A40U G65U — lower, 0.405
- A40U G65A — lower, 0.352
- A42U A52C — higher, 0.945
- A42U A52U — higher, 0.986
- A42U A52G — lower, 0.88
- G41C G68C — higher, 0.902
- G41C G68A — higher, 0.927
- G41C G68U — higher, 0.933
- G41A U69C — higher, 1.03
- G41A U69G — higher, 1
- G41A U69A — higher, 0.912
- G41U G47C — higher, 0.967
- G41U G47U — higher, 0.999
- A40U U67A — lower, 0.776
- A40U U67C — lower, 0.845
- G41C G47A — higher, 0.904
- A42G A59G — lower, 0.81
- A42G A59C — lower, 0.577
- A42G A59U — lower, 0.735
- A42C U64G — lower, 0.769
- A42C U64A — lower, 0.625
- G41C A52C — lower, 0.332
- A40U G56A — lower, 0.818
- A40U G41A — lower, 0.537
- A42C U44A — lower, 0.83
- A42C U44C — lower, 0.736
- A42C U44G — lower, 0.816
- G41A G68U — higher, 0.913
- G41A G68C — lower, 0.881
- A42C U67A — higher, 0.964
- A42C U67C — higher, 0.97
- A42G U44C — lower, 0.562
- A42G U44A — lower, 0.822
- G41A U64C — lower, 0.385
- G41A U64G — lower, 0.501
- A40U U69C — higher, 1
- A40U U69G — higher, 0.987
- A40U U69A — higher, 0.964
- A42C C57G — lower, 0.342
- A42C C57U — lower, 0.376
- A42C C57A — lower, 0.398
- G41C U64A — lower, 0.369
- G41C U64G — lower, 0.426
- G41C C57U — lower, 0.329
- A42C C66U — higher, 0.96
- A42C C66G — lower, 0.661
